{"source": "the DeepSol protein solubility set"}
{"test": "soluble on expression in E. coli; label from the status in PepcDB or PDB records"}
{"sequence": "MGSDKIHHHHHHMKLLILGNHTCGNRGDSAILRGLLDAINILNPHTEVDVMSRYPVSSSWLLNRPVMGDPLFLQMTQHNSAAGVVGRIKKVLRRRYQHQVLLSRVTDTGKLRNIAIAQGFTDFVRLLSGYDAIIQVGGSFFVDLYGVPQFEHALCTFMAKKPLFMIGHSVGPFQDEQFNQLANYVFGHCDALILRESVSLDLMKRRNITTAKVEHGVDTAWLVDHHTEDFTASYAVQHWLDVAAQQKTVAITLRELAPFDKRLGTTQQAYEKAFAGVVNRILDEGYQVIALSTCTGIDSYNKDDRMVALNLRQHISDPARYHVVMDELNDLEMGKILGACELTVGTRLHSAIISMNFATPAIAINYEHKSAGIMQQLGLPEMAIDIRHLLDGSLQAMVADTLGQLPVLNARFNEAVSRERQTGMQMVQSVLERIGEVK", "soluble on expression in E. coli": "not soluble"}
{"sequence": "EDLIFGKRISLDLGYREKALFYSLEEHVALIHPEDHDNFIHCWQLFISSANLKDNFSCTYRLKTSDGQWFWYKDLGKIVAVDANNHPVRVTGSYTNITESRANEERAQYYGDAFQQTQ", "soluble on expression in E. coli": "not soluble"}
{"sequence": "MSLENNNEIFKEKSRENFNKTADIYDESHDGKFVAPMYDEIIKRILRANPKTVLDVGCGTGNVLKILAKDENLSLYGLDLSEKMIEIAKKNLKGRAELKLGDSENMPWKSNSFDVIVCNASFHHYPNPKKVLIEMKRILKKDGTLIIGDPTAPVIYRQILNLYCKISNKGDYKLYSKKEIENIMKECGFEPFNFIHINHGSFAVNAKIREGHHHHHH", "soluble on expression in E. coli": "soluble"}
{"sequence": "MGSDKIHHHHHHMSLPIIKVHWLDHSRAFRLLWLLDHLNLEYEIVPYKRDANFRAPPELKKIHPLGRSPLLEVQDRETGKKKILAESGFIFQYVLQHFDHSHVLMSEDADIADQINYYLFYVEGSLQPPLMIEFILSKVKDSGMPFPISYLARKVADKISQAYSSGEVKNQFDFVEGEISKNNGYLVDGKLSGADILMSFPLQMAFERKFAAPEDYPAISKWLKTITSEESYAASKEKARALGSNF", "soluble on expression in E. coli": "not soluble"}
{"sequence": "MGLSGFHSFLCCRSRDYHLVINTLIHTVMTMDITKSVAFTGHRSERILQVRMLYLYLDIVSQVKRLYSLGYRYFLSGMAEGFDLLAAQAVTALKAEYTDIRLIAVVPFSRQSNRYRPENKSLYDRIMKTADETVILREDYRKGCFHHRNDYLIDNSEIVLAYWDKQPYGGTYYTVGKARMVNRIIINLYK", "soluble on expression in E. coli": "not soluble"}
{"sequence": "MGHHHHHHSHMQYMYFKAEPYAADEGSGEGHKWLMVHVDKRITLAAFKQHLEPFVGVLSSHFKVFRVYASNQEFESVRLNETLSSFSDDNKITIRLGRALKKGEYRVKVYQLLVNEQEPCKFLLDAVFAKGMTVRQSKGELIPQLREQCGLELSIDRFRLRKKTWKNPGTVFLDYHIYEEDINISSNWEVFLEVLDGVEKMKSMSQLAVLSRRWKPSEMKLDPFQEVVLESSSVDELREKLSEISGIPLDDIEFAKGRGTFPCDISVLDIHQDLDWNPKVSTLNVWPLYICDDGGVIFYRDKTEELMELTDEQRNELMKKESSRLQKTGHRVTYSPRKEKALKIYLDGAPNKDLTQD", "soluble on expression in E. coli": "not soluble"}
{"sequence": "KGDWAWQAGFSLSGVKNEITDMKGVEDIKDNTINREGEAIGSYYGLKAIGIYRTQADLDRVNANGQKILQNNQEPQLGDIMYEDIDNNGNINDADRTIIGNPFPKMQYSFNLGFSYKDFDVNTFWQGIAGVYRYNWDETTISNGGNKTSRWLDRWSESNPNGSMPRLGGTINNNYSSFWLTKGDYLRLKNLEIGYTFRQREFLTKLGVQSIRLYLAGTNLLTFTSLDDYDPEKLSTDSRNDVHPNTRTYSFGVNVKF", "soluble on expression in E. coli": "not soluble"}
{"sequence": "MGSDKIHHHHHHAGCAMIPPEPVVTGPLTAPPPPPPQPSARPNGSIYQPSAYGNYPLFEDRRPRNVGDIVTIVLEEKTNAAKGVATNTSRDGSATLGVAAAPRFMDGIINDKLDTDISGGNTANGTGKSSANNTFTGTITTTVIGVLPNGNLQIAGEKQIAINRGSEYVRFSGVVDPRSITGSNTVSSTRVADARIEYRSKGVMDEVQTMGWLQRFFLIASPF", "soluble on expression in E. coli": "not soluble"}
{"sequence": "MGSDKIHHHHHHMNYKTLVMKILIINQHSMNHGDEAAGKALIRTLYDRGFQDIAVSYNMNDFDASCLFKYKNVKQILPTKKKARGLDKITKLYLKCPCFITRFLTLMYLQRRREVKMIKEANIVISAPGGVNMGLYRDYGYVWRLKEVLYQGKSLVIYSPSIGPFTTNDFFRKIAKEILTRSTFVSLRDTQSYRYAEDLSVHYIQSIDTAYLETPRMDLPLELLNLLPKEYVVLVPNELYSWHIDYFHYDKRSIDRFYSSLIDKFTSNGLTVVLLPQLFYQPNMEDEDYFNRLKAENEKVIVIPTYYDSDIQQAIIKRAQFVVGARYHTIVFSINNETPFVCLSYEHKMKNMLEILSLDSYSIDISYAFENHKIVIDKIWKMYLDRVSVLNVLYDGKKKAKLLARKTFDFLIKKLRSM", "soluble on expression in E. coli": "not soluble"}
{"sequence": "MRRRVGLGAIQQQKLAAEKYKDKGTDLQENQLEQMTKQMEVFRVKLEEFAMKHKEDIRKNSQFRKQFQEMCAAIGVDPLATGKGFWSVLGMGDFYYELGVQVVEVCLAANHKTGGLMELDDLRRRLIAARGQSSVHQEITKEDILMAAKKLSIFGNGFVVHKLGKGKYIVQSIPGELSMEETNILNAASNTEQGCVTQSQLIKDLGWTDYRAQQSLDKVLGEGLCWIDKQAGDEPAYWFPSLFPGRNAQTTAATAAAAAALEHHHHHH", "soluble on expression in E. coli": "not soluble"}
{"sequence": "MSYERRKTREVSVGTVKIGGENPISIQSMTNTDTRDADATIAQIKRLEEAGCDIVRVAVPDIKAAKNIAKIKSSVNIPIIADIHFDYKLALEAIKQGVDGIRINPGNIGSIERVKMVVEKCKERNLKIRIGVNGGSLEKELLKKYGSATAEALVESAMGHIKILEDLDFHNIVISLKSSDIYKTVDAYELISKKVDYPLHIGITESGSVHKGTIKSSIGVGALLLKGIGDTVRISLTGDPVEEVIVGKQILRSLGLLNDKIKVISCPTCGRCNIDLISVVNEVEEKIGSMEKNITVAIMGCAVNGPGEAREADIGIAGGKGEGLLFKKGEIVRMIDGNKLVDELLEEIEKL", "soluble on expression in E. coli": "not soluble"}
{"sequence": "MSLRVVLKLGTSVLTAGTDRLHRPRLVDLMRDIAAVSAQGHEVVLVSSGAVTAGWEALGFPPRERTLAEKQLLAAVGQVQLMHLYTSLAELYGLRSAQLLLTADDFRERTRYLNARTTLEGCLSRGVLPVINENDTVAVEQIKVGDNDTLSAFVANLVEADLLLILTDAPGLYTADPRTHPDATLIPVVERVTPDIWALAGGAGSHRGTGGMHTKIQAAEIATRAGTPVVIAPGDLPEALRRVVDGEALGTRFLAHGTRLEARKRWILAEIAHGRLLLDGGAAQAVRERGSSLLPAGIRQVEGDFERGHTVRLLAPDGQELGRGLTRYRADDLRRVCGHHSREIEALLGYTYGEEAVHRDDLVLLEGHHHHHH", "soluble on expression in E. coli": "soluble"}
{"sequence": "LDIQMTQSPSSLSASLGERVSLTCRASQEISGYLYWLQQKPDGTIKRLIYAGSTLDSGVPKRFSGSRSGSDYSLTISSLESEDFADYYCLQYASYPRTFGGGTKVEIKRTVAAPSVFIFPPSDEQLKSGTASVVCLLNNFYPREAKVQWKVDNALQSGNSQESVTEQDSKDSTYSLSSTLTLSKADYEKHKVYACEVTHQGLSSPVTKSFNRGECGAGA", "soluble on expression in E. coli": "soluble"}
{"sequence": "MAQPIVVAALYKFVTLEDYVNLREPLLQAMLDNGIKGTLLIAEEGINGTVSGSREGIDGLLAWLKNDPRMVDIDHKESYCDEQPFYRTKVKLKKEIVTLGVPGVDPNKKVGTYVEPQDWNALISDPEVLLIDTRNDYEVSIGTFEGAIDPKTTSFREFPDYIKAHFDPSKHKKVAMFCTGGIRCEKASSYMLSEGFDEVFHLKGGILKYLEEVPQQESKWQGDCFVFDNRVTVRHDLSEGDYDQCHACRTPVSVEDRASEHYVPGISCPHCWDKLSEKTRRSAIDRQKQIELAKARNMPHPIGYNYKQSSSEALEHHHHHH", "soluble on expression in E. coli": "not soluble"}
{"sequence": "MSLGDVVMNERELILAIETSCDETSAAVIENGTTILSNVVSSQIDSHKRFGGVVPEIASRHHVEQITVIVEEAMHEAGVDFADLAAVAVTEGPGLVGALLIGVNAAKAIAFAHQLPLIGVHHIAGHIYANRLLKELEFPLLALVVSGGHTELIYMENHGEFEVIGETRDDAVGEAYDKVARTLGLPYPGGPHIDRLAVNGEDTLQFPRAWLEPDSFDFSFSGLKSAVINTLHNAKQRGENVQAEDVAASFQASVIDVLVTKTKKAAEEYKVRQVLLAGGVAANKGLRTALEEAFFKEPIDLVIPPLSLCTDNAAMIGAAASIKFKQQTFAGMDLNGQPSLELENDEGHHHHHH", "soluble on expression in E. coli": "soluble"}
{"sequence": "MGSDKIHHHHHHMSRISEEIENLTVELVKVPSVNGTEGEGNIGNKILSYLKEIDYFKEHEEYAFRIPLKNDKLGRGNVFALIRGEKGQSNRTIILHGHMDTVAVDDYGSLKDYAFDPDILQKKLKEIELPEEVREDLDSGDWMFGRGASDMKSGDAVHLVVLKELSKRVKDISGNILFMSNPVEENEHNGIREALDTLEKLKEKYSLEYTLAINNDYICPMYKGDNTRYLYTGTVGKLLPAFYFVGKETHVGQCFEGINADVIASEVINEIDLNVDLCDEYNGEYTLPPSVLKFKDLKESYNVQTPFSSFAYFNYTVHSESPKQASEKLKKAAKRAFERVIKRNDDRYKKYCEMTNQKYEPLNFQAKVITYTQLYTLAKARFSGDLDKEIKSYEQRLVDNYVDIREISLRVVDKVFNIWGEKKPCIVMFFAPPYCPHNTLNVKNEKEKEIINKIKECAQQLKEKEGINEEFKVMQFFPSLSDSSYLKIDDDSEGIESLTSNFPGWDRVYGVPVQKIKDLNIPAINYGCYGKDAHKWTERVYKPYSFEVLPKLIMLTIEKFL", "soluble on expression in E. coli": "not soluble"}
{"sequence": "MRQRSSYPKPFKAQVVQECLQPGATVSSVAINHGINANVIRKWLPLYRDLPAAASLPAFVPLKAAPKRPVEASVIIELPVAGQVITVKWPASDPEGCAQFIRAFAQLEHHHHHH", "soluble on expression in E. coli": "not soluble"}
{"sequence": "MEVKKVLVSAFLLTTCLMSGQAQRRNEIQVPDLDGYTTLKCDFHMHSVFSDGLVWPTVRVDEAYRDGLDAISLTEHIEYRPHKQDVVSDHNRSFDLCREQAEKLGILLIKGSEITRAMAPGHFNAIFLSDSNPLEQKDYKDAFREAKKQGAFMFWNHPGWDSQQPDTTKWWPEHTALYQEGCMHGIEVANGHLYMPEAIQWCLDKNLTMIGTSDIHQPIQTDYDFEKGEHRTMTFVFAKERSLQGIREALDNRRTAAYFHELLIGREDLLRPFFEKCVKIEEVSRNEQGVTLSITNVTDLVLKLKKTAHDTLLVYFRDMTLKPHTRYTVRIGFKQGIKGGDVNFEVTNFIVAPDKGLKYTISL", "soluble on expression in E. coli": "not soluble"}
{"sequence": "MMIYCARIVAIGLFVADGLTDKMLITFDSNGPKDCLDYSLSLEPSFREESLMILPGDRLLLAGHDYLVTSVGKGAQQALFELGHLTLVFNGDLNACHVGAVHLSGPVPKLRDLHGNLVIEEGRP", "soluble on expression in E. coli": "soluble"}
{"sequence": "MSLKPSLDELESLLIARHTPNIHNKLKKGKVAILGLGGLGSNIAISLARIGVGELLLIDYDVVEPSNLNRQQYFIDDIGKLKTDAMIENIKKINPFIKLNKRDIFLNKNNMDTIKDSDLIIEAFDDASCKAQVCNYVLINLKDKYLIASSGMAGYYDSNIITTKKIKDRFYICGDFVNEAKFGEEGHHHHHH", "soluble on expression in E. coli": "not soluble"}
{"sequence": "MGSDKIHHHHHHMRIIEASAVHAAVRQMILAANRVLGDDVYAALKSSMESETSASGREVLRQLLENADLAASGGLALCQDTGAAVFFVEMGEDVRLGGGSLQHVLNSAMAQAYEEGCLRKSMCHPLTRCNTGDNRPAIVHTELVEGDRLTIRYMAKGGGSENMSRCTMLTPAQGWQGIKEFVVRRMAEAGPNPCPPTIVGVGIGGTFDLAPALAKRALFRRLDDVHPDAEVAAMETELLDALNALGIGPMGLGGRTTCLAVKIALHPCHIASLPVAVNVQCHSARHREVIL", "soluble on expression in E. coli": "not soluble"}
